The values that follow are results of earlier work, collected in article PMC9542338.

By Kd is commonly meant the concentration at which binding is half-saturated.

Read-outs that look alike come from different tables or passages of the source.

In data set [1] the target is CD155 (Homo sapiens) (UniProt P15151).
The target is the same in data set [2]. The source holds these as a separate data set.

Chain of UniProt P15151 (P15151 21-343): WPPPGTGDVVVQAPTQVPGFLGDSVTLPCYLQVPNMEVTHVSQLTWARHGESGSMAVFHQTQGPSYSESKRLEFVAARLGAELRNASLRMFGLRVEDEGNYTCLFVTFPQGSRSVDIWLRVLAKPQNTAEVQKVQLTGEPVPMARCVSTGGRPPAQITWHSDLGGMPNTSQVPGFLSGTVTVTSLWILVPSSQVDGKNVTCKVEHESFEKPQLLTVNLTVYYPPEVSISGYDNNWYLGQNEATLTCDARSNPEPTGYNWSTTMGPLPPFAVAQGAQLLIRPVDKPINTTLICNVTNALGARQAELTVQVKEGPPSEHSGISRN

Take CD226 (from UniProt Q15762): the equilibrium dissociation constant (Kd) in data set [1] is 115 nM.
As for TIGIT (from UniProt Q495A1), in data set [2], the Kd was 2 nM.
